{"source": "paper PMC2914609", "about": "(Nanomedicine (London, England), 2010)", "target": "the molecule itself", "test": "SEC", "data": [{"protein": "Phage fusion 55-mer coat protein (pVIII coat fusion protein bearing the MCF-7-specific peptide DMPGTVLP) (designed binder) ADMPGTVLPDPAKAAFDSLQASATEYIGYAWAMVVVIVGATIGIKLFKKFTSKAS", "values": [{"measurement": "stoichiometry N", "value": 8}]}]}
